From patent US20060288448

T1: Angiogenin peptide (Bachem), P03950 (not fully specified)
T1 chain: ENGLPVHLDQSIFRR

T2: β-casein, P02666
T2 chain: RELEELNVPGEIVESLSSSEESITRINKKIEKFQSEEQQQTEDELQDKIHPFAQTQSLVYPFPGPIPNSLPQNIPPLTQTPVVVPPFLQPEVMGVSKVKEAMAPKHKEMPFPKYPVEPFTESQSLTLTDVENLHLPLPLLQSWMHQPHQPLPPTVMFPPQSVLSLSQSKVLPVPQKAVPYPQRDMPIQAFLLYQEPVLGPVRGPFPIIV


Assays:
[1] = molecular target: T1, Angiogenin peptide (Bachem), P03950
β-casein, P02666 = molecular target: T2, β-casein, P02666

Sequence of κ-casein, P02668 (P02668 22-190): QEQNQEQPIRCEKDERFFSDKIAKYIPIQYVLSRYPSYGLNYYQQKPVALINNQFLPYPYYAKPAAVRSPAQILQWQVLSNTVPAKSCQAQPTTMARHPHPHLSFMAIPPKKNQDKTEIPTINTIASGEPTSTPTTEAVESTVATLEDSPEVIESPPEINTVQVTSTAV

| Protein | proteolytic digestion for 30 or 60 min (LC-MS, N-terminal sequencing) [1] | proteolytic digestion time course (SDS-PAGE, N-terminal sequencing) (β-casein, P02666) | proteolytic digestion, cleavage site mapping (κ-casein, P02668) |
| --- | --- | --- | --- |
| iwm2s.pk015.c9 cathepsin L-like protease of western corn rootworm midgut (protein) MKLLILAATLIVAINANLSAFEQWTSFKATHNKFYNVIEDKLRFAVFQENLRKIDAHNAKYEKGEETYYMAVNKFADWSSAEFQAMLDRQMANKPKQSFIAKHVVDPNVQAVEEVDWRESAVLGVKDQGQCGSCWAFSTTGSLEGQLAIHKNQRVPLSEQELVDCDKVNDGCDGGLMTDAFFYIEHHGLSSEEQYPYTGVDGHCNHVKDKQVSSISGYVELDETESALADALANVGPVSIAVEADTWQFYSGGVFNNKNCGDALNHGVLAVGYTKDVFIVKNSWGTGWGEQGYIRVARGSNLCGINLMNSYPKL | after 30 min two distinct pairs of cleavage products were detected that corresponded to cleavage immediately N-terminal to Leu8 or to Gln10 | The time course of β-casein digestion by c9 showed a major ˜19 kD digestion product (indicated by black arrowhead) by 2 minutes after addition of enzyme | κ-casein was also digested with c9 and h10 ... major detectable cleavage sites were observed after Ser54, Asp62, Serl25, and Met127 |
| iwm2s.pk017.h10 cathepsin L-like protease of western corn rootworm midgut (protein) MKLFILAAALIVATSANLGAFEKWTSFKATHNKSYNVIEDKLRFAVFQDNLKKIEEHNAKYESGEETYYLAVNKFADWSSAEFQAMLARQMANKPKQSFIAKHVADPNVQAVEEVDWRDSAVLGVKDQGQCGSCWAFSTTGSLEGQLAIHKNQRVPLSEQELVDCDTSRNAGCNGGLMTDAFNYVKRHGLSSESQYAYTGRDDRCKNVENKPLSSISGYVELETTEDALASAVASVGPVSIAVDADTWQLYGGGLFNNKNCRTNLNHGVLAVGYTKDAFIVKNSWGTSWGEQGYIRVARGENLCGINLMNSYPKL |  |  | κ-casein was also digested with c9 and h10 ... major detectable cleavage sites were observed after Ser54, Asp62, Serl25, and Met127 |
